This is an account of results in the nanobody polyreactivity screen of Harvey et al. (2022).

The nature of this data set: yeast display, Sf9 membrane polyspecificity reagent, FACS + sequencing; frameworks hold sequencing errors. Put shortly: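 A synthetic nanobody library was expressed on Saccharomyces cerevisiae BJ5465 by galactose induction for 36–48 hours. The library was stained for 1 hour at 4 °C with 10% biotinylated, detergent-solubilized Sf9 membrane reagent and enriched with streptavidin microbeads before FACS. Low and high (top ~1%) gates were set on anti-HA fluorescence for expression and streptavidin fluorescence for reagent binding, and each polyreactivity label reflects the gate of origin.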
Consider “QVQLVESGGGLVQAGGSLRLSCAASGGISSSNAMGGYRQAPGKERELVAGINSRGGSTYADSVKGRFTISRDNAKNTVYLQMKSLKPEDTAVYYCAAAPTYKWRRKNYDYWGQGTQVTVSS”, for which the “polyreactivity (PSR sort gate)” value is listed as “high polyreactivity”.
Turning to “QVQLVESGGGLVQAGGSLRLSCAASGGNFERNAMGWYRQAPGKERELVAAITGSGGRTYYADSVKGRFTISRDNAKITVYLQMNSLKPEDTAVYFCAAVPWWKYKYWGQGTQVTVSS”, the “polyreactivity (PSR sort gate)” value is “high polyreactivity”.
Under “QVQLVESGGGLVQAGGSLRLSCAASGGNFGTNDMGWYRQAPGKERELVAAITSDSGSTYYADSVKGRFTISRDNAKNTVYLQMNSLKPEDTAVYYCAAEDGPWFYRYGYWGQGTQVTVSS” stands “low polyreactivity”; under “QVQLVESGGGLVQAGGSLRLSCAASGGNLPYNVMGRYRQAPGKEWELVAAITSGVNTNYADSVKGRFTISRDNAKNTVYLQMNSLKPEDTAVYYCAARSGGPSDGSGYWGQGTQVTVSS”, “low polyreactivity”.
On to “QVQLVESGGGLVQAGGSLRLSCAASGGSFYNYPMGWYRQAPGKERELVAAITYSGVRTNYADSVKGRFTISRDNAKNTVYLQMNSLKPEDTAVYYCAADGLSNVRQMDYWGQGTQVTVSS”, for which the “polyreactivity (PSR sort gate)” value is “low polyreactivity”.
Under “QVQLVESGGGLVQAGGSLRLSCAASGGTFAPNAMGWYRQAPGKEREFVAAITISGGSTYYADSVKGRFTISRDNAKNTVYLQMNSLKPEDTAVYYCAADYYAWDTYQWYDYWGQGTQVTVSS” stands “high polyreactivity”; under “QVQLVESGGGLVQAGGSLRLSCAASGGTFARYAMGWYRQAPGKERELVAAITRSGGTTYYADSVKGRFTISRDNAKNTVYLQMNSLKPEDTAVYYCAALPIVDYYGYGYWGQGTQVTVSS”, “high polyreactivity”; under “QVQLVESGGGLVQAGGSLRLSCAASGGTFAVYAMGWYRQAPGKEREWVAAIDSGGRTNYADSVKGRFTISRDNAKNTVYLQMNSLKPEDTAVYYCAADGGGQYVRYDYWGQGTQVTVSS”, “high polyreactivity”.
For “QVQLVESGGGLVQAGGSLRLSCAASGGTFAWYAMGWYRQAPGKERELVAAITSDGITKYADSVKGRFTISRDNAKNTVYLQMNSLKPEDTAVYYCAKDDGPSDWIGRWFDYWGQGTQVTVSS”, the “polyreactivity (PSR sort gate)” value is listed as “low polyreactivity”.
For the sequence “QVQLVESGGGLVQAGGSLRLSCAASGGTFDDYAMGWYRQAPGKERELVAAISSSGGSTYYADSVKGRITISRDNAKNTVYLEMNSLKPDDTAVYYCAVDAFWRHWYYPYESHHDYWGQGTQVTVSS”, the “polyreactivity (PSR sort gate)” value was “low polyreactivity”.
To “QVQLVESGGGLVQAGGSLRLSCAASGGTFDWNPMGWYRQAPGKERELVASITSGGRTNYADSVKGRFTISRDNAKNTVYLQMNSLKPEDTAVSYCAKYRRSAYPWQTWVGQKFDYWGQGTHVTVSS” belongs “low polyreactivity”; to “QVQLVESGGGLVQAGGSLRLSCAASGGTFDWNTMGWYRQAPGKERELVASITSGGRTNYADSVKGRFTISRDNAKNTVYLQMNSLKPEDTAVYYCAIYRRSAYPWQTWVGQKFDYWGQGTQVTVSS”, “low polyreactivity”; to “QVQLVESGGGLVQAGGSLRLSCAASGGTFEYNAMGWYRQAPGKERELVAAISKSGGRTYYADSVKGRFTISRDNAKNTVYLQMNSLKPEDTAVYYCAKRYVWGQGTQVTVSS”, “high polyreactivity”.
To “QVQLVESGGGLVQAGGSLRLSCAASGGTFFGYAMGWYRQAPGKERELVAAISGSGGRTYYADSVKARFTISRDNAKNTVYLQMNSLKPEDTAVYYCAADATHETYYPFYYWGQGTQVTVSS” belongs “high polyreactivity”; to “QVQLVESGGGLVQAGGSLRLSCAASGGTFGAYAMGWYRPAPGKERELVAAISGSGARTYYADSVKGRFTISRDNAKNTVYLQMNSLKPEDTAVYYCAARSTGTRVGEYDYWGQGTQVTVSS”, “high polyreactivity”; to “QVQLVESGGGLVQAGGSLRLSCAASGGTFGINDMGWYRQAPGKERDLVAAISWSGGDTYYADSVKGRFTISRDNAKNTVYLQRNSLKPEDTAVYYCAADYHYTKSMYYWGQGTQVSVSS”, “low polyreactivity”.
To “QVQLVESGGGLVQAGGSLRLSCAASGGTFGKYTMGWSRQAPGKERELVAAINKSGGSTYYADSVKGRFTISRDNAKNTVYLQMNSLKPEDTAVYYCAAGTYFLSREYNYWGQGTQVTVSS” belongs “low polyreactivity”; to “QVQLVESGGGLVQAGGSLRLSCAASGGTFGLNAMGWSRLAPGKARELVADIDGRGGSTYYADSVKGRFTISRDNSKNTVYLQMNSRNPEDTAVYYCAARAPFLSVPSELDYWGQCTQVTVSS”, “low polyreactivity”.
As to “QVQLVESGGGLVQAGGSLRLSCAASGGTFGNYAMGWYRQAPGKERELVAAISTRGGSTYYADSVKGRFTISCDNAKNTVYLQMNSLKPEDTAVYYCNARIKRPRGVYGGDYWGQGTQVTVSS”, the “polyreactivity (PSR sort gate)” value is “high polyreactivity”.
For “QVQLVESGGGLVQAGGSLRLSCAASGGTFGRYAMGWYRQAPGKERELVASITTGGRTNYADSVKGRFTISRDNAKNTVYLQMNSLKPEDTAVYYCAKKRYGYPLPFYYWGQGTQVTVSS”, the “polyreactivity (PSR sort gate)” value was “high polyreactivity”.
To “QVQLVESGGGLVQAGGSLRLSCAASGGTFGSYAMGWYRQAPAKERELVAAIRSGDRTYYADSVKGRFTISRDNAKNTDYLQMNSLKPEHTAVDYCAAFYHHYYRYDYWGQGTQVTVSS” belongs “low polyreactivity”.
Regarding “QVQLVESGGGLVQAGGSLRLSCAASGGTFGVNAMGWYRQAPGKERELVAAISSSGGRTYYADSVKGRFTISRDNAKNTVYLQVNSLKPEDTAVYYCAARNYFWGQGTQVTVSS”, the “polyreactivity (PSR sort gate)” value was “low polyreactivity”.
Under “QVQLVESGGGLVQAGGSLRLSCAASGGTFGVYAMGWYRQAPGKERELVAAIDWDDGNTYYADSVKGRFTLSRDNAKNTVYLQMNSLKPEDTAVYYCAAVVFSRRYWVKFYYWGQGTQVTVSS” stands “high polyreactivity”; under “QVQLVESGGGLVQAGGSLRLSCAASGGTFGYNAMGWYRQAPGKERELVAAISYSGTSTYYADSVKGRFTISRDNAKNTVYLQMNSLKPEVTAVYYCNAGRYIKMGDWGQGSQVTVSS”, “high polyreactivity”; under “QVQLVESGGGLVQAGGSLRLSCAASGGTFGYNAMGWYRQAPWKERELVAAISSGGRTYYADSVKGRFTISRDNAKNTVYLQMNSLKPEDTAVYYCNARKGLYYGGRYDYWGQGTQVTVSS”, “high polyreactivity”.
With “QVQLVESGGGLVQAGGSLRLSCAASGGTFGYYAMGWYRQAPGKERELVAAITSGGSTNYADSVKGRFTISRDNAKNTVYLQMNSLKPEDTAVYYCAARYINRYPKAQPTDRSIYYWGQGTQVTVSS”, the “polyreactivity (PSR sort gate)” value is reported as “high polyreactivity”.
“QVQLVESGGGLVQAGGSLRLSCAASGGTFHGYAMGWYRQAPGKERELVAAINWSGTSTYYADSVKGRFTISRDNAKNTVYLQMNRLKPEDTAVYYCAAAYFRGTYYYWGQGTQVTVSS”: the “polyreactivity (PSR sort gate)” value is on record as “high polyreactivity”.
To “QVQLVESGGGLVQAGGSLRLSCAASGGTFKANAMGWYRQAPGKERELVAAIRQTGGSTYYADSVKGRFTISRDNAKNTVYLQMNSLKPEDTAVYYCAAQSHRYCIYDYWGQGTQVTVSS” belongs “high polyreactivity”.
As to “QVQLVESGGGLVQAGGSLRLSCAASGGTFKFFAMGLYRQAPGKERELVAAITSGGSTNYADSVKGRFTISRDNAKNTVYLQMNRLKPEDTAVYYCAVDSLPNSPYDYWGQGTQVTVSS”, the “polyreactivity (PSR sort gate)” value was “low polyreactivity”.
On to “QVQLVESGGGLVQAGGSLRLSCAASGGTFLGNAMGWYRPAPGKERELVADITSGGSTNYADSVKGRFTISRDNAKNTVYLQMNSLKPEDTAVYYCNAEYSTSTVWEYDYWGQGTQVTVSS”, for which the “polyreactivity (PSR sort gate)” value is “low polyreactivity”.
Regarding “QVQLVESGGGLVQAGGSLRLSCAASGGTFLSNAMGWYRQAPGKERELVASISWGGGSTTYADSVKGRFTISRDNAKNTVYLQMNSLKPEDTAVYYCNALDGPGYYVDYDYWGQGTQVTVSS”, the “polyreactivity (PSR sort gate)” value is “low polyreactivity”.
In the case of “QVQLVESGGGLVQAGGSLRLSCAASGGTFLVNAMGWYRQAPGKERELVATITARVGSTYYADSVKGRFTISRDNAKNTVYLQMNSLKPEDTADYYCAAYPQLWYWDYNYWGQGTQVTVSS”, the “polyreactivity (PSR sort gate)” value is “high polyreactivity”.
Under “QVQLVESGGGLVQAGGSLRLSCAASGGTFLVNAMGWYRQSPGKEREWVATITARVASTYYADSVTGRFTISRDNAKNTVYLQMNTLKPEDTAVYYCAARKVWGYTYGYPYYYWGQATQVTVSS” stands “high polyreactivity”; under “QVQLVESGGGLVQAGGSLRLSCAASGGTFLVYAMGWYRQAPGKERELVAAITRSGGSTYYADSVKGRFTISRDNAKNTVYLQMNSLKPEDTAVYYCNARYRNSGRYWDWYYYWGQGTQVTVSS”, “high polyreactivity”; under “QVQLVESGGGLVQAGGSLRLSCAASGGTFLYYAMGWYRQAPGKERELVAAISRGGSTHYADSVKGRFTISRDNAKNTVYLQMNSLKPEDTAVYYCAADRSHRKRINFYDYWGQGTQVTVSS”, “low polyreactivity”.
To “QVQLVESGGGLVQAGGSLRLSCAASGGTFLYYMGWYRQAPGKEMELVAAITFSGGSTYYADSVKGRFTISRDNAKNTVYLQMNSLKPEDTAVYYCAAGWYDWPKYLLSVYTYYLYDSWGQGTQVTVSS” belongs “low polyreactivity”; to “QVQLVESGGGLVQAGGSLRLSCAASGGTFNGYALGWYRQAPGKERELVAAITSGGGSTYADSVKGRFTISRDNAKNTVYLQMNSLKPEDTAVYYCNADQWDEWFWDYDYWGQGTQVTVSS”, “low polyreactivity”.
On to “QVQLVESGGGLVQAGGSLRLSCAASGGTFPFNAMGRYRQAPGKEREFVAAISFRGGSTYYADSVKGRFTISRDNAKNTVYLQMNSLKPEDTAVYSCAAYRLRPRNGVYRMDYWGQGTQVTVSS”, for which the “polyreactivity (PSR sort gate)” value was “high polyreactivity”.
To “QVQLVESGGGLVQAGGSLRLSCAASGGTFPGYTMGWNRQAPGKERELVAAISGSGVSTYYADSVKGRFTISRDNAKNTVYLQMNSLKPEDTAVYYCARTYRSYSRYPFVRFDYWGQGTQVTVSS” belongs “high polyreactivity”; to “QVQLVESGGGLVQAGGSLRLSCAASGGTFPSYAMGWYRQAPGKERELVAAISWSGGRTYYADSVKGRFTISRDNAKNTVYLQMNSLKPEDTAVYYCNADDYGYSFNYWGQGTQVTVSS”, “high polyreactivity”; to “QVQLVESGGGLVQAGGSLRLSCAASGGTFPYNAMGGYRQAPGKERELVAVITSGDGTYYADSVKGRFTISRDNAKNTVYLQMNSLKPEDTAVYYCAADYVVWFSFVYVVEYDYWGQGTQVTVSS”, “low polyreactivity”.
